Experimental findings from patent publication US20130315914A1 (NOVIMMUNE, published 2013) are described below.

Assay [1] addresses T1, cynomolgus monkey TLR4 expressed on stably transfected CHO-K1 cells (cynomolgus monkey, UniProt Q9TSP2 24-826 (Papio anubis entry)).
T1 construct: Transfected alone; also called CHO cells expressing the cynomolgus monkey TLR4
T1 chain: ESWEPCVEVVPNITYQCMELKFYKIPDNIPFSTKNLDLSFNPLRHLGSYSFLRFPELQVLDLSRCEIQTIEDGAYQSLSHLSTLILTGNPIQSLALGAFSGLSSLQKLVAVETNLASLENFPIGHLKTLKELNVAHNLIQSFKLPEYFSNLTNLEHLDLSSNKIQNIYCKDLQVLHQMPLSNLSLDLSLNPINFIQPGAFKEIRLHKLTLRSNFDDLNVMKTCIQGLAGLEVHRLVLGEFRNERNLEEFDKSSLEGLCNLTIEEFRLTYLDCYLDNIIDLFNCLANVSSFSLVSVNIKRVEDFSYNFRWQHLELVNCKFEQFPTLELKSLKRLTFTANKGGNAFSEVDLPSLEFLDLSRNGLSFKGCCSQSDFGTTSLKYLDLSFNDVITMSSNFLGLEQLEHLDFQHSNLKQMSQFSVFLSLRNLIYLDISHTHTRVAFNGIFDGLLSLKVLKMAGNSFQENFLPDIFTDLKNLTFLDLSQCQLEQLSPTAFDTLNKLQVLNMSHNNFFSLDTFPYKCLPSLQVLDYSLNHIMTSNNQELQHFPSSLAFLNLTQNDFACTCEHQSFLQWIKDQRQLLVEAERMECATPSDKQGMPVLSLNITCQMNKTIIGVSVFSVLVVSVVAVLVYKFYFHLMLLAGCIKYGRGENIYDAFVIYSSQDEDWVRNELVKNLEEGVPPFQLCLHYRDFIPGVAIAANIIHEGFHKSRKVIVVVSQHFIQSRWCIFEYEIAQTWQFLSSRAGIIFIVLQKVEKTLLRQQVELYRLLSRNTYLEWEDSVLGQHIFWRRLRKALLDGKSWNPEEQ
The experiment in a line: summary table of species specificity (flow cytometry results). Here is the method: 10⁵ CHO cells or CHO cells expressing the cynomolgus monkey TLR4 were incubated in phosphate-buffered saline, 2% bovine serum albumin with different concentrations of purified antibodies selected by FMAT (1A1, 1A6, 1B12, 1C7, 1C10, 1C12, 1D10, 1E11, 1G12) with 15C1 as control. Cells were washed in phosphate-buffered saline, 2% bovine serum albumin and incubated in Alexa Fluor® 647 goat anti human IgG (H+L) (1:200; Invitrogen). Cells were analyzed using a FACS calibur cytometer (BD Biosciences).
Similar experiments were conducted with CHO cells or CHO cells expressing the human TLR4/MD2 complex. […] 1C12 Mab was also able to bind to human TLR4 but with a lower potency compared to 1E11 and 15C1 Mabs.

For assay [2], the target named is T2, soluble histidine-tagged form of human TLR4/MD2 complex (human, UniProt Q9Y6Y9 19-160). Nature of the assay: competitive ELISA; coated 15C1 as competitor, soluble His-tagged human TLR4/MD2, Penta-His-HRP. Here is the method: (§1) The VH and VL cDNA sequences in their appropriate expression vectors were transfected into mammalian cells using the Fugene 6 Transfection Reagent (Roche, Basel, Switzerland). Briefly, Peak cells were cultured in 6-well plates at a concentration of 6×10⁵ cells per well in 2 mL culture media containing fetal bovine serum. The expression vectors, encoding the candidate VH and VL sequences, were co-transfected into the cells using the Fugene 6 Transfection Reagent according to manufacturer's instructions. One day following transfection, the culture media was aspirated, and 3 mL of fresh serum-free media was added to cells and cultured for three days at 37° C. Following three days culture period, the supernatant was harvested for IgG purified on protein G-Sepharose 4B fast flow columns (Sigma, St. Louis, Mo.) according to manufacturer's instructions. Briefly, supernatants from transfected cells were incubated overnight at 4° C. with ImmunoPure (G) IgG binding buffer (Pierce, Rockford Ill.). Samples were then passed over Protein G-Sepharose 4B fast flow columns and the IgG consequently purified using elution buffer. The eluted IgG fraction was then dialyzed against PBS and the IgG content quantified by absorption at 280 nm. Purity and IgG integrity were verified by SDS-PAGE. Relative binding potency of 1E11 variants was assessed by competitive ELISA. Briefly, 15C1 antibody was coated overnight in a 96-well Maxisorp plate and then blocked with PBS-BSA. The 15C1 reference antibody and affinity matured variants of 1E11 were added to the plate at a fixed concentration and a 3.5-fold serial dilution of the samples was performed. Then, soluble histidine-tagged form of human TLR4/MD2 complex was added to the plate at a fixed concentration. After incubation one hour at 37° C., the plate was washed and a solution of Penta-His-HRP antibody was distributed, this step was followed by an additional incubation time of one hour at 37° C. Finally, the plate was washed and TMB was added for colorimetric revelation, the enzymatic reaction is stopped by H₂SO₄ solution. The results were determined according to the absorbance at 450 nm. The relative binding potency was calculated by dividing the reference EC₅₀ with affinity matured variants EC₅₀ (Table 8).
T2 sequence (Q9Y6Y9 19-160, one chain of several): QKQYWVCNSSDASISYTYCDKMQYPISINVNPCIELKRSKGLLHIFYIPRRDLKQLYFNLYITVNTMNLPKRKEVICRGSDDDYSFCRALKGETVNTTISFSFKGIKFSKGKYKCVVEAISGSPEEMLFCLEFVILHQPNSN
(In general: An ELISA detects its analyte on a solid surface through an enzyme-linked reagent.)

In assay [3] the target is T2, soluble histidine-tagged form of human …. The experiment in a line: competitive ELISA; 15C1 reference EC50 divided by variant EC50. Here is the method: as §1
Assay [4] addresses T3, cynomolgus monkey TLR4 in cynomolgus monkey whole blood (cynomolgus monkey, UniProt Q9TSP2 24-826 (Papio anubis entry)).
T3 chain: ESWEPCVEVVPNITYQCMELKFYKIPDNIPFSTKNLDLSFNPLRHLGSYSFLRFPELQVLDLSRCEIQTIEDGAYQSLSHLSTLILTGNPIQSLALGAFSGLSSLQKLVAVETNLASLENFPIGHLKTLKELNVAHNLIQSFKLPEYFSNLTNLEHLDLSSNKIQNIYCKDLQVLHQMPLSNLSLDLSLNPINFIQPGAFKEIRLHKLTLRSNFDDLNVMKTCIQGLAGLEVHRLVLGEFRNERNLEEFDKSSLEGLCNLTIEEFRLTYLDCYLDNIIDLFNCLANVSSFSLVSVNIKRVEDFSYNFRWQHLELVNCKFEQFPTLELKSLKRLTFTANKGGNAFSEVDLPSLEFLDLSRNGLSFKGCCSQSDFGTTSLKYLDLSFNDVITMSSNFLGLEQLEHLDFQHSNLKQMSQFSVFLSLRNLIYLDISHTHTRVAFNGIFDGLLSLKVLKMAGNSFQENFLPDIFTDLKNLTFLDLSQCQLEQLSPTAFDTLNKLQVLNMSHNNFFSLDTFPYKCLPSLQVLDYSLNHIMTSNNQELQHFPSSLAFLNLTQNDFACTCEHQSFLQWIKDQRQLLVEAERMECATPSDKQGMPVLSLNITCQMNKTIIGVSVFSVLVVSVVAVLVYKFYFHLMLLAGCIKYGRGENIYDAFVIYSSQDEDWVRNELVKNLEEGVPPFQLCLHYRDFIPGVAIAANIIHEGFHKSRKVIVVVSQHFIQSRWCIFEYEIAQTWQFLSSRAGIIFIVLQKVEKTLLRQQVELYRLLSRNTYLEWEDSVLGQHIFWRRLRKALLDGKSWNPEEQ
The experiment in a line: cell-based or functional assay.

Assay [5] addresses human TLR4 in human whole blood (human). The experiment in a line: cell-based or functional assay.

B1: 1A1 antibody (IgG1) (antibody, V domains shown)
VH: QVQLQESGPGLVKPSDTLSLTCAVSGYSITGGYSWHWIRQPPGKGLEWMGYIHYSGYTDFNPSLKTRITISRDTSKNQFSLKLSSVTAVDTAVYYCARKDSGRLLPYWGQGTLVTVSS
VL: EIVLTQSPDFQSVTPKEKVTITCRASQSISDHLHWYQQKPDQSPKLLIKYASHAISGVPSRFSGSGSGTDFTLTINSLEAEDAATYYCQQGHSFPLTFGGGTKVEIK
notes: also called 1A1 Mab
For the molecule B1, in assay [1], the binding result was “binds”.

B2: 1D10 antibody (IgG1) (antibody, V domains shown)
VH: QVQLQESGPGLVKPSDTLSLTCAVSGYSITGGYSWHWIRQPPGKGLEWMGYIHYSGYTDFNPSLKTRITISRDTSKNQFSLKLSSVTAVDTAVYYCARKDSGHNLPYWGQGTLVTVSS
VL: EIVLTQSPDFQSVTPKEKVTITCRASQSISDHLHWYQQKPDQSPKLLIKYASHAISGVPSRFSGSGSGTDFTLTINSLEAEDAATYYCQQGHSFPLTFGGGTKVEIK
notes: also called 1D10 Mab
On to B2, for which the binding result in assay [1] was “binds”.

B3: 1G12 antibody (IgG1) (antibody, V domains shown)
VH: QVQLQESGPGLVKPSDTLSLTCAVSGYSITGGYSWHWIRQPPGKGLEWMGYIHYSGYTDFNPSLKTRITISRDTSKNQFSLKLSSVTAVDTAVYYCARKDSGRYWPYWGQGTLVTVSS
VL: EIVLTQSPDFQSVTPKEKVTITCRASQSISDHLHWYQQKPDQSPKLLIKYASHAISGVPSRFSGSGSGTDFTLTINSLEAEDAATYYCQQGHSFPLTFGGGTKVEIK
notes: also called 1G12 Mab
For the molecule B3, the binding result in assay [1] is on record as “binds”.

B4: 1C10 antibody (IgG1) (antibody, V domains shown)
VH: QVQLQESGPGLVKPSDTLSLTCAVSGYSITGGYSWHWIRQPPGKGLEWMGYIHYSGYTDFNPSLKTRITISRDTSKNQFSLKLSSVTAVDTAVYYCARKDSGKNFPYWGQGTLVTVSS
VL: EIVLTQSPDFQSVTPKEKVTITCRASQSISDHLHWYQQKPDQSPKLLIKYASHAISGVPSRFSGSGSGTDFTLTINSLEAEDAATYYCQQGHSFPLTFGGGTKVEIK
notes: also called 1C10 Mab
B4: the binding result in assay [1] is reported as “binds”.

B5: 1A6 antibody (IgG1) (antibody, V domains shown)
VH: QVQLQESGPGLVKPSDTLSLTCAVSGYSITGGYSWHWIRQPPGKGLEWMGYIHYSGYTDFNPSLKTRITISRDTSKNQFSLKLSSVTAVDTAVYYCARKDSGKWLPYWGQGTLVTVSS
VL: EIVLTQSPDFQSVTPKEKVTITCRASQSISDHLHWYQQKPDQSPKLLIKYASHAISGVPSRFSGSGSGTDFTLTINSLEAEDAATYYCQQGHSFPLTFGGGTKVEIK
notes: also called 1A6 Mab
On to B5, for which, in assay [1], the binding result is “binds”.

B6: 1C12 antibody (IgG1) (antibody, V domains shown)
VH: QVQLQESGPGLVKPSDTLSLTCAVSGYSITGGYSWHWIRQPPGKGLEWMGYIHYSGYTDFNPSLKTRITISRDTSKNQFSLKLSSVTAVDTAVYYCARKDSGQLFPYWGQGTLVTVSS
VL: EIVLTQSPDFQSVTPKEKVTITCRASQSISDHLHWYQQKPDQSPKLLIKYASHAISGVPSRFSGSGSGTDFTLTINSLEAEDAATYYCQQGHSFPLTFGGGTKVEIK
notes: also called 1C12 Mab
With B6, in assay [1], the binding result is recorded as “binds”.

B7: 1E11.C2 antibody (IgG1) (antibody, V domains shown)
VH: QVQLQESGPGLVKPSDTLSLTCAVSGYPIRFGYSWHWIRQPPGKGLEWMGYIHYSGYTDFNPSLKTRITISRDTSKNQFSLKLSSVTAVDTAVYYCARKDSGNYFPYWGQGTLVTVSS
VL: EIVLTQSPDFQSVTPKEKVTITCRASQSISDHLHWYQQKPDQSPKLLIKYASHAISGVPSRFSGSGSGTDFTLTINSLEAEDAATYYCQQGHSFPLTFGGGTKVEIK
What is called EC50 is the concentration at which the effect is half-maximal. As to B7, the EC50 in assay [2] was determined as 0.036 µg/mL. Further, in assay [3], the “Relative binding potency increase” value came to 17 fold. In addition, the “IC50, inhibition of IL-6 production in cynomolgus monkey whole blood assay” value in assay [4] is around 0.5 µg/mL. In addition, in assay [5], the “IC50, inhibition of IL-6 production in human whole blood assay” value was found to be 0.07 µg/mL and the “fold better than 15C1 at blocking human TLR4 (human whole blood assay)” value came to 3 fold.

B8: 1E11 N103D antibody (IgG1) (antibody, V domains shown)
VH: QVQLQESGPGLVKPSDTLSLTCAVSGYSITGGYSWHWIRQPPGKGLEWMGYIHYSGYTDFNPSLKTRITISRDTSKNQFSLKLSSVTAVDTAVYYCARKDSGDYFPYWGQGTLVTVSS
VL: EIVLTQSPDFQSVTPKEKVTITCRASQSISDHLHWYQQKPDQSPKLLIKYASHAISGVPSRFSGSGSGTDFTLTINSLEAEDAATYYCQQGHSFPLTFGGGTKVEIK
notes: 1E11 with the N103D mutation in the heavy chain; also called 1E11 N103D Mab
Turning to B8, in assay [1], the binding result was “binds”.

B9: 1C7 antibody (IgG1) (antibody, V domains shown)
VH: QVQLQESGPGLVKPSDTLSLTCAVSGYSITGGYSWHWIRQPPGKGLEWMGYIHYSGYTDFNPSLKTRITISRDTSKNQFSLKLSSVTAVDTAVYYCARKDSGHNYPYWGQGTLVTVSS
VL: EIVLTQSPDFQSVTPKEKVTITCRASQSISDHLHWYQQKPDQSPKLLIKYASHAISGVPSRFSGSGSGTDFTLTINSLEAEDAATYYCQQGHSFPLTFGGGTKVEIK
notes: also called 1C7 Mab
In the case of B9, the binding result in assay [1] is given as “binds”.

B10: 1B12 antibody (IgG1) (antibody, V domains shown)
VH: QVQLQESGPGLVKPSDTLSLTCAVSGYSITGGYSWHWIRQPPGKGLEWMGYIHYSGYTDFNPSLKTRITISRDTSKNQFSLKLSSVTAVDTAVYYCARKDSGHLMPYWGQGTLVTVSS
VL: EIVLTQSPDFQSVTPKEKVTITCRASQSISDHLHWYQQKPDQSPKLLIKYASHAISGVPSRFSGSGSGTDFTLTINSLEAEDAATYYCQQGHSFPLTFGGGTKVEIK
notes: also called 1B12 Mab
As for B10, in assay [1], the binding result is on record as “binds”.
